Positions count from the first letter of the chain named.
B1: ITGa3-VM2 (antibody, V domains shown)
VH: EVQLQESGAELVKPGTSVRLSCKASGYTFTEYIIHWVKQRSGQGLEWIGWFYPESGSVKYNETFKGRATLTADKSSSTVYMELSRLTSEDSAVYFCARHEERDYYGYYAMDYWGQGTSVTVSS
VL: DIVMTQTPTTLAASPGEKIIITCSASSSISSNYLHWYQQKPGFSPKLLIYRTSNLASGVPARFSGSGSGTSYSLTIGTMEAEDVATYYCQQGSSIPRFTSGSGTKLEIK
B2: Lc1/Hc1S (VH of SEQ ID NO: 4 and VL of SEQ ID NO: 12) (antibody, V domains shown)
VH: QVQLVQSGAEVKKPGSSVKVSCKASGYTFTEYIIHWVRQAPGQGLEWIGWFYPESGSVKYSETFKGRATLTADKSTSTAYMELSSLRSEDTAVYYCARHEERDYYGYYAMDYWGQGTTVTVSS
VL: DIQMTQSPSSLSASVGDRVIITCSASSSISSNYLHWYQQKPGKVPKLLIYRTSNLASGVPSRFSGSGSGTDYTLTISSLQPEDVATYYCQQGSSIPRFTSGGGTKVEIK
B3: Lc1/Hc2A (antibody, V domains shown)
VH: B2 VH with S61N, T63A, L70I
VL: B2 VL with I20T
B4: Lc1/Hc1A (antibody, V domains shown)
VH: B2 VH with S61N, T63A
VL: B2 VL with I20T
B5: Lc2/Hc1A (antibody, V domains shown)
VH: B2 VH with S61N, T63A
VL: B2 VL
B6: Lc1/Hc2 (antibody, V domains shown)
VH: B2 VH with S61N, L70I
VL: B2 VL with I20T
B7: anti-ITGa3 huVM2 Hc2T62G/Lc1 antibody (antibody, V domains shown)
VH: B2 VH with S61N, T63G, L70I
VL: DIQMTQSPSSLSASVGDRVTITCSASSSISSNYLHWYQQKPGKVPKLLIYRTSNLASGVPSRFSGSGSGTDYTLTISSLQPEDVATYYCQQGSSIPRFTSGGGTKVEIKR
B8: Lc1/Hc1G (antibody, V domains shown)
VH: B2 VH with S61N, T63G
VL: B2 VL with I20T
B9: Lc2/Hc1 (antibody, V domains shown)
VH: B2 VH with S61N
VL: B2 VL
B10: Lc2/Hc2S (antibody, V domains shown)
VH: B2 VH with L70I
VL: B2 VL
B11: Lc1/Hc1S (antibody, V domains shown)
VH: B2 VH
VL: B2 VL with I20T
B12: Lc2/Hc2A (antibody, V domains shown)
VH: B2 VH with S61N, T63A, L70I
VL: B2 VL
B13: Lc2/Hc2G (antibody, V domains shown)
VH: B2 VH with S61N, T63G, L70I
VL: B2 VL
B14: Lc1/Hc1 (antibody, V domains shown)
VH: B2 VH with S61N
VL: B2 VL with I20T
B15: Lc1/Hc2S (antibody, V domains shown)
VH: B2 VH with L70I
VL: B2 VL with I20T
B16: Lc2/Hc2 (antibody, V domains shown)
VH: B2 VH with S61N, L70I
VL: B2 VL

Biological target: T1, human ITGa3 protein (human, UniProt P26006 33-991)
T1 chain: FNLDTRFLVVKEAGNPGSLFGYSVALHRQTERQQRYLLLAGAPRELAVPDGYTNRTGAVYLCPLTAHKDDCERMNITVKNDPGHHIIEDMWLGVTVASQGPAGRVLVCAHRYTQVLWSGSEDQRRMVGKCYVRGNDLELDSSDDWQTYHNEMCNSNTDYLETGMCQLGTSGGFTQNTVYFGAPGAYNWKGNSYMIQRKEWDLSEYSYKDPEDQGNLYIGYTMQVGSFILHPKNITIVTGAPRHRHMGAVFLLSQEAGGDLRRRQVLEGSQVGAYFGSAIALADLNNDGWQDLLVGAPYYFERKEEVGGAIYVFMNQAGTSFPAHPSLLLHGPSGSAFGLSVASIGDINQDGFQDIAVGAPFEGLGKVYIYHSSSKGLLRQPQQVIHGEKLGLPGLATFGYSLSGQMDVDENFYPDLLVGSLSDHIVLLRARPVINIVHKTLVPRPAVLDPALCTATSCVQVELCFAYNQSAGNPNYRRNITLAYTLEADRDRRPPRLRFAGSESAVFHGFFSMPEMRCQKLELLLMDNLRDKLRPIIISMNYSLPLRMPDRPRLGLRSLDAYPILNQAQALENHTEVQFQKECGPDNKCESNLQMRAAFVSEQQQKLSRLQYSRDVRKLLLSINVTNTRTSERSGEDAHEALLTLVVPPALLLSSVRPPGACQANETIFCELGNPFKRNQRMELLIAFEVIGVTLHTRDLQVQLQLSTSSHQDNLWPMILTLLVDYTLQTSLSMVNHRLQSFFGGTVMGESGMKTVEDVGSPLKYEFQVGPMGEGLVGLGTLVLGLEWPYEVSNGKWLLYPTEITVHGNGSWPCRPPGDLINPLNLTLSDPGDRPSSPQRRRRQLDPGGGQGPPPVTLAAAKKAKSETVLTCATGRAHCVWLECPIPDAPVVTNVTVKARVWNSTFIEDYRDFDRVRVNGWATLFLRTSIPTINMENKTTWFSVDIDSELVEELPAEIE
Experiment: ELISA; apparent Kd

| Binder | Kd |
| --- | --- |
| B1 | 0.23 nM |
| B2 | 0.18 nM |
| B3 | 0.27 nM |
| B4 | 0.32 nM |
| B5 | 0.23 nM |
| B6 | 0.07 nM |
| B7 | 0.18 nM |
| B8 | 0.23 nM |
| B9 | 0.18 nM |
| B10 | 0.24 nM |
| B11 | 0.18 nM |
| B12 | 0.24 nM |
| B13 | 0.18 nM |
| B14 | 0.18 nM |
| B15 | 0.32 nM |
| B16 | 0.1 nM |

Biological target: T2, human ITGa3 on human-derived cell lines (human, UniProt P26006 33-1051)
T2 chain: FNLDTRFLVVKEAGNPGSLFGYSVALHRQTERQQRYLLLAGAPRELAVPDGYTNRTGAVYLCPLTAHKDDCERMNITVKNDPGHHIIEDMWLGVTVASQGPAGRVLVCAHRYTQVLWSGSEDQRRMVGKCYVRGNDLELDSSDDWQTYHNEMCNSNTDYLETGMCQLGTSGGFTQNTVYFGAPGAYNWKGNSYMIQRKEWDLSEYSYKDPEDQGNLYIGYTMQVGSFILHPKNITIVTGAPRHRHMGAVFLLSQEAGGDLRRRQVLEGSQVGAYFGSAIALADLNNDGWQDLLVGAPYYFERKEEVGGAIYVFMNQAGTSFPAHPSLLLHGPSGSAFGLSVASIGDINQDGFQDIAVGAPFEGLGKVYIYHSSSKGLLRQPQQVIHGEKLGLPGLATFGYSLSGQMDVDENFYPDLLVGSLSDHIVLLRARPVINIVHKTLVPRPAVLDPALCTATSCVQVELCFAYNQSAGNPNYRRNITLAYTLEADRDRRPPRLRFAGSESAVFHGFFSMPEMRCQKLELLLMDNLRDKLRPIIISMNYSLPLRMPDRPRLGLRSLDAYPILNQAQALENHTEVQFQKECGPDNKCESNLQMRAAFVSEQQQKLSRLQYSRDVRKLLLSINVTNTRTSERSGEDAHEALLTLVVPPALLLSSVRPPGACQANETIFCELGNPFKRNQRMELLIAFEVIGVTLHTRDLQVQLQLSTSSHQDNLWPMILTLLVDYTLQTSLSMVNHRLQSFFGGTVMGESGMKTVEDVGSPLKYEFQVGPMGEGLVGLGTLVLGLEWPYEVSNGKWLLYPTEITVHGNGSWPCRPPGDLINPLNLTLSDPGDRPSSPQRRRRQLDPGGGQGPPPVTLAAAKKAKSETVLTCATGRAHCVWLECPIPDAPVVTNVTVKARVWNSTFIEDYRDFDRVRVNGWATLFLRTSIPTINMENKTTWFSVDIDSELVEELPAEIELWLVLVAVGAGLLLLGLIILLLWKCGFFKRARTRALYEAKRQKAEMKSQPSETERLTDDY
Experiment: FACS; human H292 cells

| Binder | Kd |
| --- | --- |
| B7 | 0.27 nM |

Biological target: T3, cynomolgus monkey ITGa3 on cynomolgus-derived primary kidney epithelial cells (cynomolgus monkey, UniProt A0A2K5VFR2 17-1035)
T3 chain: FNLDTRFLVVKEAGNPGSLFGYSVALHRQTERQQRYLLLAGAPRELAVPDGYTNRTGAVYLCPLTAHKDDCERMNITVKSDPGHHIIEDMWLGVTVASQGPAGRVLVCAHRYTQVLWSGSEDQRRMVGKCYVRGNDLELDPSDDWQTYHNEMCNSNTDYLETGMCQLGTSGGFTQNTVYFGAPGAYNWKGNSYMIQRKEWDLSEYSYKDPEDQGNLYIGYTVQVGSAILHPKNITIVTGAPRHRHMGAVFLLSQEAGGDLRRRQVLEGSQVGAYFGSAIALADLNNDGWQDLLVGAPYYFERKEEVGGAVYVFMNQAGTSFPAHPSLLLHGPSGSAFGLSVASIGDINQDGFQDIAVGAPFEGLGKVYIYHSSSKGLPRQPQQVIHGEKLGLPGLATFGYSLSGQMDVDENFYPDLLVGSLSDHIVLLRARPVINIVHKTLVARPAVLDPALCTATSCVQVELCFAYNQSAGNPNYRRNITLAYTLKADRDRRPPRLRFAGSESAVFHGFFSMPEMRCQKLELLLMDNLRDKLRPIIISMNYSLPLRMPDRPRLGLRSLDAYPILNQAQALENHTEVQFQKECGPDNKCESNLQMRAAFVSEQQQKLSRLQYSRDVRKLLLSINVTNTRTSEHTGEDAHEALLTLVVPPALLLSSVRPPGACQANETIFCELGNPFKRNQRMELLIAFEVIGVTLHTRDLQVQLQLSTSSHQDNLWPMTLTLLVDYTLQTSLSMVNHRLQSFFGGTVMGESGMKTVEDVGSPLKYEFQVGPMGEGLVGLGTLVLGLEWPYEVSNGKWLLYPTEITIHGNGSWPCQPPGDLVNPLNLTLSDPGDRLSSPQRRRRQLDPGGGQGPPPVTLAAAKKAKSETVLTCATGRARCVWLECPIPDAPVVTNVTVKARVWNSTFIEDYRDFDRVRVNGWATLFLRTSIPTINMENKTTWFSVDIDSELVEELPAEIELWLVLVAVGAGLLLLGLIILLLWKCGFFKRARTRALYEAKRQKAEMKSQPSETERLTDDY
Experiment: FACS; cyno primary kidney epithelial cells

| Binder | Kd |
| --- | --- |
| B7 | 0.17 nM |

— patent US20190309072A1 (published 2019)
